Test results taken from the nanobody polyreactivity screen of Harvey et al. (2022).

Experiment: yeast display, Sf9 membrane polyspecificity reagent, FACS + sequencing; frameworks hold sequencing errors
Procedure, shortened: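 After 36–48 hours of galactose induction, yeast (Saccharomyces cerevisiae BJ5465) displaying a synthetic nanobody library were stained at 4 °C for 1 hour with 10% biotinylated, detergent-solubilized Sf9 membrane reagent. Streptavidin microbeads enriched the stained cells before FACS sorting into low and high (top ~1%) gates on anti-HA and streptavidin fluorescence. Each clone's polyreactivity label reflects its gate of origin.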

Which “polyreactivity (PSR sort gate)” value does the source give for “QVQLVESGGGLVQAGGSLRLSCAASGSTFGYNAMGWYRQAPGKERELVAAISWSGGSTYYADSVKGRFTISRDNAKNTVYLQMNSLKPEDTAVYYCAALTHYGGYGYTYDYWGQGTQVTVSS” here?
The value was “low polyreactivity”.

For “QVQLVESGGGLVQAGGSLRLSCAASGSTFGYNAMGWYRQAPGKERELVAAITWSGGSTYYADSVKGRFTISRDNAKNTFYFQMNSLKPEDTAVYYCAAEWGVGKSWLEYLLFYYWGQGTQVTVSS”, which “polyreactivity (PSR sort gate)” value is on record?
The value was “low polyreactivity”.

With “QVQLVESGGGLVQAGGSLRLSCAASGSTFGYNAMGWYRQAPGKERELVAAITYRGSTYYADSVKGRFTISRDNAKNTVYLQMNSLKPEDTAVYYCATQGARYYHTYGYWGQGTQVTVSS” as the sequence, how does the “polyreactivity (PSR sort gate)” value read?
The value was “low polyreactivity”.

Which “polyreactivity (PSR sort gate)” value does the source give for “QVQLVESGGGLVQAGGSLRLSCAASGSTFGYNTMGWYREAPGKERELVAAITGTGRTNYADSVKGRFTISRDNAKNTVYLQMNSLKPEDTAVYYCNARQAGTRYKYGYYGRYYWGQGTQVTVSS” here?
Its value is “high polyreactivity”.

For “QVQLVESGGGLVQAGGSLRLSCAASGSTFGYYAMGWYRQAPGKEMELVAAITSGASTNYADSVKGRFTISRDNAKNTVYLQMNSLKPEDTAVYYCAADFLSPAYRPSWYRFDYWGQGTQVTVSS”, which “polyreactivity (PSR sort gate)” value is on record?
Its value is “low polyreactivity”.

With “QVQLVESGGGLVQAGGSLRLSCAASGSTFGYYAMGWYRQAPGKERELVAAIRSSGGGTYYADSVKGRFTISRDNAKNTVYLQMNSLKPEDTAVYYCATDAPILVNAEYDEWLEYDYWGQGTQVTVSS” as the sequence, how does the “polyreactivity (PSR sort gate)” value read?
The value was “low polyreactivity”.

With “QVQLVESGGGLVQAGGSLRLSCAASGSTFGYYAMGWYRQAPGKERELVAAITGRGGSTYYADSVKGRFTISRDNAKNTVYLQMNSLKPEDTAVYYCAVGKYRLYYSGAYGYWGQGTQVTVSS” as the sequence, how does the “polyreactivity (PSR sort gate)” value read?
The value was “high polyreactivity”.

With “QVQLVESGGGLVQAGGSLRLSCAASGSTFGYYAMGWYRQAPGKERELVAAITKRSGRTYYADSVKGRFTISRDNAKNTVYLQLNSLKPEDTAVYYCAARYTFDRWKFGYWGQGTQVTVSS” as the sequence, how does the “polyreactivity (PSR sort gate)” value read?
The value was “high polyreactivity”.

With “QVQLVESGGGLVQAGGSLRLSCAASGSTFGYYAMGWYRQAPGKERELVAGISSGGTTKYADSVKGRFTISRDNAKNTVYLQMNSLTPVDTAVYYCAARFRRTRVTYYYWGQGTQVTVSS” as the sequence, how does the “polyreactivity (PSR sort gate)” value read?
Its value is “high polyreactivity”.

Which “polyreactivity (PSR sort gate)” value does the source give for “QVQLVESGGGLVQAGGSLRLSCAASGSTFGYYAMGWYRQAPGKERELVAVITRSGDRTYYADSVKGRFTISRDNAKNTVYLQMNSLKPEDTGVYYCAARATSAGGVAEYYWGQGTQVTVSS” here?
Its value is “high polyreactivity”.

Which “polyreactivity (PSR sort gate)” value does the source give for “QVQLVESGGGLVQAGGSLRLSCAASGSTFHIYAMGWYRQAPGKERELVAAINRSGGSTRYADSVKGRFTISRDNAKNTVYLQMNSLKPEDTAVYYCATKRSTGYYWGQGTQVTVSS” here?
Its value is “high polyreactivity”.

With “QVQLVESGGGLVQAGGSLRLSCAASGSTFHLNAMGWYRQAPGKERELVAAISWDGSSTSYADSVKGRFTISRDNANNTVYLQMNSLKPEDTAVYYCAADDTLDRVPTTFIDGSPGYGYWGQGTQVTVSS” as the sequence, how does the “polyreactivity (PSR sort gate)” value read?
Its value is “low polyreactivity”.

Which “polyreactivity (PSR sort gate)” value does the source give for “QVQLVESGGGLVQAGGSLRLSCAASGSTFHLYAMGWYRQAPGKEREFVAAIRGRGGNTYADSVKGRFTISRDNAKNTVYLQMNSLKPEDTAFYYCAAPLLRDLRSPYSYNYWGQGTQVTVSS” here?
Its value is “low polyreactivity”.

For “QVQLVESGGGLVQAGGSLRLSCAASGSTFHRNAMGWYRQAPGKERELVAAISWRGGSTYYADSVKGRFTISRDNAKNNVYLLMNSLKPEDTAVYYCNAVERYWDYGYWGQGTQVTVSS”, which “polyreactivity (PSR sort gate)” value is on record?
Its value is “low polyreactivity”.

For “QVQLVESGGGLVQAGGSLRLSCAASGSTFHRYAMGWSRQAPGKERELVAAISLSGGRTYYADSVKGRFTISRDNAKNTVYLQMNSLKPEDSAVYYCNALVPSGNGDHDYWGQGTQVTVSS”, which “polyreactivity (PSR sort gate)” value is on record?
The value was “high polyreactivity”.

Which “polyreactivity (PSR sort gate)” value does the source give for “QVQLVESGGGLVQAGGSLRLSCAASGSTFHSYVMGWYREAPGIERELVAAITSRGGSTNYADSVKGRFTISRDNAKNTVYFQMNSLKPEDTAVYYCAAEWLYPLDGGYPRPMDYWGQGTQVTVSS” here?
Its value is “low polyreactivity”.

For “QVQLVESGGGLVQAGGSLRLSCAASGSTFHVNAMGWYRQAPGKEREFVAAISWRTGSTYYADSVKGRFTISRDNAKNTVYLQMNSLKPEDTAVYYCAAKRSYSNYDYWGQGTQVTVSS”, which “polyreactivity (PSR sort gate)” value is on record?
The value was “high polyreactivity”.

With “QVQLVESGGGLVQAGGSLRLSCAASGSTFHVYAMGWYRQAPGKEREFVASITTRGGSTYYADSVKGRFTISRDNAKNTVYLQMNSLKPEDTAVYYCNATPYPGGNGRWRFWKSYGYWGQGTQVTVSS” as the sequence, how does the “polyreactivity (PSR sort gate)” value read?
Its value is “high polyreactivity”.

Which “polyreactivity (PSR sort gate)” value does the source give for “QVQLVESGGGLVQAGGSLRLSCAASGSTFHWYAMGWYRQAPGKERELVAVITWSGGSTYYADSVKGRFTISRDNAKNTVYLQMNSLKPEDTAVYYCARDWYRYKLWLFRGQDGDYWGQGTQVTVSS” here?
Its value is “low polyreactivity”.

Which “polyreactivity (PSR sort gate)” value does the source give for “QVQLVESGGGLVQAGGSLRLSCAASGSTFHYYAMGWYRQAPGKERELVAAISSSGVSTYYADSVKGRFTISRDNAKNTVYLQMNSLKPEDTAVYYCNRASVFHYRWYYYWGQGTQVTVSS” here?
The value was “high polyreactivity”.

Which “polyreactivity (PSR sort gate)” value does the source give for “QVQLVESGGGLVQAGGSLRLSCAASGSTFHYYAMGWYRQAPGKERELVATITSSGCSTYYADSVKGRFTISRDNAKNTVYLQMNSLKPEDTAVYYCNKKSYYRDYGRYDYWGQGSQVTVSS” here?
Its value is “low polyreactivity”.
